Measured values taken from patent US11026972B2, “Methods for generating macrophages with enhanced cancer phagocytosis” (Georgia State University Research Foundation, Inc., priority 2016, dated 2021).

Test system: CFSE-labeled CD47^+ or CD47^− RBCs in recipient mice
Experiment: RBC adoptive transfer and in vivo clearance of CFSE-labeled RBCs
Design: species or system mouse
Details: 24 h
Description: FIGS. 2A-2E includes data related to macrophage phagocytosis in vivo assessed by adoptive transfer experiments. FIGS. 2A-C are illustrative graphs showing clearance of adoptively transferred CD47-positive (Cd47^+) or CD47-negative (Cd47^−) RBC in recipient mice. […] Error bars are ±SEM. **P<0.01, ***P<0.001 vs. WT mice clearance of Cd47^+ RBCs. […] Mice treated with DSS (1% for SIRPα^−/− mice, 2% for WT and Cd47^−/− mice) for 8 d (d8) were transfused with CFSE-RBCs followed by determination of RBC clearance after 24 h. FACS data of Cd47^+ RBCs and Cd47^− RBCs in different mice at 30 min and 24 h after transfer were selectively shown. Total RBC phagocytosis was calculated based on the rates of CFSE-RBC clearance and the fact that SIRPα^−/− mice eliminate both Cd47^− RBC and Cd47^+ RBC, whereas WT mice and Cd47^−/− mice eliminate only Cd47^− RBCs. […] Mice treated once with IL-17 (10 μg/kg, i.v.) were transfused with CFSE-labeled Cd47^+ or Cd47^− RBCs a day later. Error bars are ±SEM. **P<0.01, ***P<0.001 vs. control or the initial time point. Data presented in each panel represent at least three independent experiments with n≥4, if applicable.
Adoptive transfer and in vivo clearance: CD47-expressing (CD47^+) RBC freshly collected from WT or SIRPα^−/− mice, and CD47-null (CD47^−) RBC collected from CD47^−/− mice were labeled with carboxyfluorescein succinimidyl ester (CFSE). After washing, about 1×10^9 RBC suspended in 200 μl sterile PBS were transfused into recipient mice by intravenous (i.v.) injection. Blood samples (5 μl) were then collected 30 min after the blood transfusion and the CFSE-labeled RBC in the circulation was assessed by FACS analyses. Blood samples (5 μl each) were then collected at later time points to assess the clearance of CFSE-labeled RBC as compared to that found at 30 min. For each sample, at least 50,000 RBC were examined by FACS. […] Clearance of CFSE-labeled cells in the circulation and the spleen were analyzed by FACS analyses of blood samples and splenocytes. […]

B1: IL-17: recombinant murine cytokine interleukin IL-17 (also known as IL-17A), PeproTech (protein, UniProt Q62386 26-158, looked up)
Interleukin-17A: AAIIPQSSACPNTEAKDFLQNVKVNLKVFNSLGAKVSSRRPSDYLNRSTSPWTLHRNEDPDRYPSVIWEAQCRHQRCVNAEGKLDHHMNSVLIQQEILVLKREPESCPFTFRVEKMLVGVGCTCVASIVRQAA
clearance of transferred CD47^+ and CD47^− RBCs (SIRPα^−/− mice, 1% DSS for 8 d or directly injected with IL-17): ~50% | clearance of transferred RBCs (mutant mice treated with IL-17 multiple times and a longer period (d1 and d3)): < 5%
